Laboratory results taken from patent US7432342 (dated 2008).
Ends that are not written are not given here.

biological target: PKA-RIα-GFP (UniProt P10644); assay: not given
Sequence (P10644 whole entry): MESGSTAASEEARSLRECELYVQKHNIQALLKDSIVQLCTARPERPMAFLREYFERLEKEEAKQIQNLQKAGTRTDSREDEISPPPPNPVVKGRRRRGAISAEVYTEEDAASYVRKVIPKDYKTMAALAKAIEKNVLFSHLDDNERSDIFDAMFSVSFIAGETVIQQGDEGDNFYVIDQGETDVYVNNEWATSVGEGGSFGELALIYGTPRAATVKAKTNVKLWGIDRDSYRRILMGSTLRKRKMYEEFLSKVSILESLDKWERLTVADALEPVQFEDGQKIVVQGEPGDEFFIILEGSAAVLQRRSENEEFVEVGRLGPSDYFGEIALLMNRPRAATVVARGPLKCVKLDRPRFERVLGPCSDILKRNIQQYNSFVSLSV

binding result | Binder
no binding | WKIAKMIVSDIMQQ [truncation SEQ 78]
no binding | KIAKMIVSDIMQQ [truncation SEQ 79]
no binding | AWKIAKMIVSDIMQQ [truncation SEQ 77]
no binding | LAWKIAKMIVSDIMQQ [truncation SEQ 76]
no binding | KMIVSDIMQQ [truncation SEQ 82]
no binding | IAKMIVSDIMQQ [truncation SEQ 80]
no binding | AKMIVSDIMQQ [truncation SEQ 81]

biological target: PKA-RIIα-GFP (UniProt P13861); assay: not given
Sequence (P13861 2-404): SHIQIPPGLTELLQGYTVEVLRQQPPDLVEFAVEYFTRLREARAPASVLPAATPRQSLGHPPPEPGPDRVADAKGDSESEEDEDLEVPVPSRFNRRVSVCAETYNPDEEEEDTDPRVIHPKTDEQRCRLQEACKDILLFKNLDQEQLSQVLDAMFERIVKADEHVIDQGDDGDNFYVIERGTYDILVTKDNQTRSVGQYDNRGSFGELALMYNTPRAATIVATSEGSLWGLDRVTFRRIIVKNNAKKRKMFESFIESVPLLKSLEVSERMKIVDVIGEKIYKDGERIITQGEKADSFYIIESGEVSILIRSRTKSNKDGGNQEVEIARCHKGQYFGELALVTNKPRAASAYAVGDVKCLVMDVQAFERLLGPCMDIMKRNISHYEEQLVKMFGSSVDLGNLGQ

binding result | Binder
no binding | WKIAKMIVSDIMQQ [truncation SEQ 78]
no binding | KIAKMIVSDIMQQ [truncation SEQ 79]
no binding | KMIVSDIMQQ [truncation SEQ 82]
no binding | IAKMIVSDIMQQ [truncation SEQ 80]
no binding | AKMIVSDIMQQ [truncation SEQ 81]

biological target: T1, PKA RIα (full-length) (bovine, UniProt P00514); assay: FP
T1 sequence (P00514 2-380): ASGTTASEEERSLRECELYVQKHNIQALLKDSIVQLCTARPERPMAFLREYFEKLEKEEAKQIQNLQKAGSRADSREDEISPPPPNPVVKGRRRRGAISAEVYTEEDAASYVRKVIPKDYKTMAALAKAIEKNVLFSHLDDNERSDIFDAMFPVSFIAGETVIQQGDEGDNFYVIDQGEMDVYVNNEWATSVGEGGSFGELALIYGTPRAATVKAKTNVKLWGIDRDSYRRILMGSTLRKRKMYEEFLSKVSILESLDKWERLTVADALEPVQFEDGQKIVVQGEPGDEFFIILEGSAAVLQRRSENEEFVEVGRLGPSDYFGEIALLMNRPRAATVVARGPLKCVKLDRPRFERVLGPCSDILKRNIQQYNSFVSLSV

Kd | Binder
12 nM | QEEFAWKIAKMIISDVFQQC [PV-48]
120 nM | VQGNTDEAQEELAWKIAKMIWSDVMQQC [V21W]
48 nM | VQGNTDEAQEELAWKIAKMIVSDVMQQC(tetramethylrhodamine) [AKB(dual) WT]
5.2 nM | FEELAWKIAKMIWSDVFQQC [AKB(RI) PV-38]
39 nM | QEEFAWKIAKMIVSDVFQQC [PV-47]
1.1 nM | FEELAWKIAKMIISDVFQQC [PV-49]
19 nM | FEELAWKIAKMIWSDVMQQC [PV-37]
773 nM | Ac-DLAWKIAKMIVSDVMQQC [Ac-DLAWKIAKMIVSDVMQQC]

biological target: PKA-RIα-GFP (UniProt P10644); assay: not given; remark: another data set of the same source

binding result | Binder
no binding | QEELAWKIAKM [truncation SEQ 11]
no binding | ELAWKIA [truncation SEQ 13]
no binding | AQEELAWKIAKMI [truncation SEQ 10]
no binding | EELAWKIAK [truncation SEQ 12]
no binding | TDEAQEELAWKIAKMIVSD [truncation SEQ 8]
no binding | DEAQEELAWKIAKMIVS [truncation SEQ 9]
no binding | EAQEELAWKIAKMIV [truncation SEQ 4]

biological target: T2, PKA RIIα (full-length) (mouse, UniProt P12367); assay: FP
T2 sequence (P12367 2-401): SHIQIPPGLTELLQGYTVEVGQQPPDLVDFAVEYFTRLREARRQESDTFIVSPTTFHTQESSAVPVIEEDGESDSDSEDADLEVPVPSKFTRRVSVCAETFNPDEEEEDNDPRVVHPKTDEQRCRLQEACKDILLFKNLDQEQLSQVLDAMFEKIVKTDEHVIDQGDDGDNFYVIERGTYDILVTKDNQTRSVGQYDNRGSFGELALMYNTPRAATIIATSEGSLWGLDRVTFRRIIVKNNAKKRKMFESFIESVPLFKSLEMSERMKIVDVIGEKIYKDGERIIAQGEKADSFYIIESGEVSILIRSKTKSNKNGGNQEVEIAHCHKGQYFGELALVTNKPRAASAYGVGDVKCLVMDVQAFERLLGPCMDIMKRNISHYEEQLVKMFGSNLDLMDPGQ

Kd | Binder
2.7 nM | VQGNTDEAQEELLWKIAKMIVSDVMQQC (also: fluorescently labeled) [AKB(RII)]
2.2 nM | VQGNTDEAQEELAWKIAKMIVSDVMQQC(tetramethylrhodamine) [AKB(dual) WT]
456 nM | FEELAWKIAKMIWSDVFQQC [AKB(RI) PV-38]
> 10000 nM | VQGNTDEAQEELAWKIEKMIWSDVMQQC (also: fluorescently labeled) [AKB(null)]

biological target: T1, PKA RIα (full-length); assay: FP; remark: another data set of the same source

Kd | Binder
2490 nM | VQGNTDEAQEELLWKIAKMIVSDVMQQC (also: fluorescently labeled) [AKB(RII)]
48 nM | VQGNTDEAQEELAWKIAKMIVSDVMQQC(tetramethylrhodamine) [AKB(dual) WT]
5.2 nM | FEELAWKIAKMIWSDVFQQC [AKB(RI) PV-38]
998 nM | VQGNTDEAQEELAWKIEKMIWSDVMQQC (also: fluorescently labeled) [AKB(null)]

biological target: PKA-RIIα-GFP (UniProt P13861); assay: not given; remark: another data set of the same source

binding result | Binder
no binding | VQGNTDEAQEELAWKIAKM [truncation SEQ 90]
no binding | VQGNTDEAQEELAWKIA [truncation SEQ 92]
no binding | VQGNTDEAQEELAWK [truncation SEQ 94]
no binding | VQGNTDEAQEELAWKIAK [truncation SEQ 91]
no binding | VQGNTDEAQEE [truncation SEQ 98]
no binding | VQGNTDEAQEEL [truncation SEQ 97]
no binding | VQGNTDEAQE [truncation SEQ 99]
no binding | VQGNTDEAQEELAW [truncation SEQ 95]
no binding | VQGNTDEAQEELAWKIAKMI [truncation SEQ 89]
no binding | VQGNTDEAQEELA [truncation SEQ 96]
no binding | VQGNTDEAQEELAWKI [truncation SEQ 93]

biological target: PKA-RIα-GFP (UniProt P10644); assay: SPR

Kd | Binder
860 nM | Ac-VQGNTDEAQEELAWKIAKMIVSDIMQQ [Ac-27mer Ile]
500 nM | Ac-VQGNTDEAQEELAWKIAKMIVSDVMQQ-NH2 [Ac-27mer Val]

biological target: PKA-RIα-GFP (UniProt P10644); assay: not given; remark: another data set of the same source

binding result | Binder
no binding | VQGNTDEAQEELAWKIAKMIVSD [truncation SEQ 86]
no binding | VQGNTDEAQEELAWKIAKM [truncation SEQ 90]
no binding | VQGNTDEAQEELAWKIA [truncation SEQ 92]
no binding | VQGNTDEAQEELAWK [truncation SEQ 94]
no binding | VQGNTDEAQEELAWKIAK [truncation SEQ 91]
no binding | VQGNTDEAQEE [truncation SEQ 98]
no binding | VQGNTDEAQEELAWKIAKMIV [truncation SEQ 88]
no binding | VQGNTDEAQEEL [truncation SEQ 97]
no binding | VQGNTDEAQE [truncation SEQ 99]
no binding | VQGNTDEAQEELAWKIAKMIVS [truncation SEQ 87]
no binding | VQGNTDEAQEELAW [truncation SEQ 95]
no binding | VQGNTDEAQEELAWKIAKMI [truncation SEQ 89]
no binding | VQGNTDEAQEELA [truncation SEQ 96]
no binding | VQGNTDEAQEELAWKI [truncation SEQ 93]

biological target: T2, PKA RIIα (full-length); assay: FP; remark: another data set of the same source

Kd | Binder
124 nM | QEEFAWKIAKMIISDVFQQC [PV-48]
83 nM | VQGNTDEAQEELAWKIAKMIWSDVMQQC [V21W]
2.2 nM | VQGNTDEAQEELAWKIAKMIVSDVMQQC(tetramethylrhodamine) [AKB(dual) WT]
456 nM | FEELAWKIAKMIWSDVFQQC [AKB(RI) PV-38]
89 nM | QEEFAWKIAKMIVSDVFQQC [PV-47]
2.5 nM | FEELAWKIAKMIISDVFQQC [PV-49]
150 nM | FEELAWKIAKMIWSDVMQQC [PV-37]
107 nM | Ac-DLAWKIAKMIVSDVMQQC [Ac-DLAWKIAKMIVSDVMQQC]

biological target: PKA-RIIα-GFP (UniProt P13861); assay: not given; remark: another data set of the same source

binding result | Binder
no binding | QEELAWKIAKM [truncation SEQ 11]
no binding | ELAWKIA [truncation SEQ 13]
no binding | AQEELAWKIAKMI [truncation SEQ 10]
no binding | EELAWKIAK [truncation SEQ 12]
